In assay [1] the target is T1, PHF-tau (paired helical filament tau isolated from Alzheimer's disease brain) (human, UniProt P10636-8 2-441, limits assumed, hyper-phosphorylated, aggregated; sites not listed for the preparation).
T1 construct: also called enriched PHF-tau; ePHF-tau
In words: SPR ProteOn, PHF-tau.

The target of assay [2] is T2, Peptide-2 (human, phosphothreonine 212, phosphothreonine 217 (tau 2N4R numbering); short chain biotin (SCBiot) and dPEG4 at the N-terminus; amide at the C-terminus).
T2 construct: also called pT212/pT217-tau peptide (Peptide-2)
In words: SPR ProteOn, peptide captured, Fab as analyte; range of n=2. On the procedure: (§1) A subset of HFA-PT3 monoclonal antibody variants, selected based on biophysical characterization and ELISA binding to PHF, were analyzed by Surface Plasmon Resonance (SPR) with a ProteOn XPR36 for binding to the following phosphopeptides: pT212/pT217-tau peptide (Peptide-2, SEQ ID NO: 48) and pT212-tau peptide (Peptide-8, SEQ ID NO: 54). All experiments were performed at 25° C. using PBST, pH 7.4, (Bio-Rad Cat#176-2720) as both running buffer and sample dilution buffer.
(§2) Fab/peptide binding. Biotinylated peptide was captured on a neutravidin-coated NLC biosensor chip pre-conditioned with PBST, and Fab was flowed over the surface to measure kinetic parameters. Approximately 5-10 RU of peptide was captured on the chip surface by diluting peptide to 10 ng/mL in PBST and injecting over the flow channels at 30 μL/min for 100 s. Serial dilutions of PT3 Fab (1.1 nM to 90 nM) were injected at 60 μL/min for 3 minutes (association phase), followed by 300 s of buffer only (dissociation phase).
(§3) Data were double referenced by subtraction of the interspot response, and the curves generated by the buffer only injection. The chip surface was regenerated with 0.85% phosphoric acid, followed by PBST injection before the next antibody titration injection. Data processing and analysis were performed using instrument software. The data were fit using a simple Langmuir 1:1 binding model.

For assay [3], the target named is T3, tau phospho-peptide of the direct ELISA of Example 11.
T3 construct: also called pT217 peptide; pT212/pT217 peptide
In words: direct ELISA on plate-coated tau phospho-peptide, Fabs. As to the method: (§4) Binding to tau phospho-peptide was analysed by ELISA where peptide (10 ng/mL) was directly coated to the plate overnight. […] After incubation with antibodies, plates were washed and 50 μL per well of HRPO labelled anti-Fab antibody (Jackson Immunoresearch laboratories) (diluted 1:10000 in blocking buffer). After another washing step detection was performed with “One step” TMB (Thermo Scientific) according to the manufacturers' instructions. Plates were analysed in EnVision® 2102 Multilabel Reader (Perkin Elmer, Waltham, Mass., USA). Binding curves were generated using GraphPad Prism7.0 software.

The target of assay [4] is T2, Peptide-2. In words: SPR ProteOn, peptide captured, Fab as analyte. As to the method: as §1, §2, §3
Assay [5] concerns the target T2, Peptide-2. In words: SPR ProteOn, peptide captured, Fab as analyte; range of n=2; upper end of n=2 range. On the procedure: as §1, §2, §3
In assay [6] the target is T3, tau phospho-peptide of the direct ELISA …. In words: direct ELISA, peptide coated. On the procedure: as §4
For assay [7], the target named is T1, PHF-tau (paired helical filament tau …). In words: SPR ProteOn, PHF-tau on chip.
The target of assay [8] is T2, Peptide-2. In words: SPR ProteOn, peptide captured, Fab as analyte; range of n=2; lower end of n=2 range. As to the method:
as §1, §2, §3

The target in assay [9] is T1, PHF-tau (paired helical filament tau …). In words: SPR ProteOn, PHF-tau capture-coupled via HT7, 1:1 model. As to the method: (§5) A subset of HFA-PT3 monoclonal antibodies was tested for binding to PHF-tau isolated from Alzheimer's disease brain. All interactions were studied at 25° C. using PBS pH 7.4, supplemented with 3 mM EDTA, and 0.005% Tween 20 as running or system buffer. HT7 (Pierce, catalog #MN1000), a mouse anti-tau antibody, was used as a positive control.
(§6) The interaction of anti-tau monoclonal antibodies with PHF-tau was analyzed by ProteOn using a biosensor surface prepared by capture-coupling PHF-tau using HT7 as the capture reagent. PHF-tau was prepared by 2-times centrifugation at 5000×g at 5° C. for 10 min; the supernatant from the second centrifugation was then diluted 1/40 in running buffer. To prepare the chip, HT7 was covalently immobilized to the surface of a GLC (ProteOn) sensor chip using the manufacturer's instructions for amine-coupling chemistry (˜5000 response units (RU)). The coupling buffer was 10 mM sodium acetate, pH 4.5. After HT7 immobilization, PHF-tau was injected and captured (˜300 RU) by HT7. After capture, PHF-tau was covalently immobilized to the sensor chip by activation of the chip using the manufacturer's instructions for amine-coupling chemistry. Remaining reactive sites were blocked by the injection of ethanolamine. After preparation and stabilization of the PHF-tau-modified surface and reference surface (containing no antigen), the anti-tau antibodies were diluted in the running buffer and injected in solution (0.12-75 nM in 5-fold dilutions). The association was monitored for 3 minutes (120 μL injected at 40 μL/min). The dissociation was monitored for 15 minutes. Regeneration of the sensor surface was performed using 10 mM Gly pH 2.0. The data for monoclonal antibodies were fit using a bivalent binding model where the apparent affinity (KD) was reported as the ratio of koff/kₒₙ. A Langmuir 1:1 binding model was used for kinetics analysis of Fabs.

Assay [10] shares this target. Described as above. As to the method: (§7) Affinity matured monoclonal antibodies were tested for binding to PHF-tau isolated from Alzheimer's disease brain.
(§8) A GLC sensor chip was covalently immobilized with a mouse anti-tau antibody, HT7 (ThermoFisher, catalog# MN1000) using the vendor recommended protocol for amine-coupling chemistry (˜5000 response units, RU). The coupling buffer was 10 mM, pH 4.5 sodium acetate. PHF-tau was prepared by 2-times centrifugation at 5000×g in 5° C. for 10 min. […] After capture-coupling, the surface was activated and deactivated to generate a homogenous PHF-tau surface for antibody binding studies. The anti-tau antibodies and their Fabs (prepared in running buffer, 0.024-75 nM at 5-fold dilutions) were injected at 50 μL/min over the PHF-tau surface to measure binding. The association and dissociation profiles were monitored for 4 minutes and 2 hours, respectively. After dissociation, the sensor chip was regenerated using multiple injections of 10 mM Glycine pH 2.0 and the running buffer. A reference surface (without any PHF-tau) was used to monitor non-specific binding of the injected mAbs or Fabs. HT7 antibody was used as a positive control. The binding sensorgrams for mAbs were fit using a bivalent binding model where the apparent affinity or avidity-driven binding (KD) was reported as the ratio of off-rate and on-rate (koff/kₒₙ). A 1:1 Langmuir binding model was used for kinetics analysis of Fabs.
The source holds these as a separate data set.

Assay [11] addresses T2, Peptide-2. In words: SPR ProteOn, mAb captured, peptide as analyte; range of n=2; upper end of n=2 range. On the procedure:
as §1
(§9) Monoclonal antibody/Peptide binding. […] Anti-human IgG was amine-coupled to the chip surface using EDC/NHS, then washed with ethanolamine. Antibodies were diluted to 2 μg/mL in PBST and injected on the surface for 5 min at 30 μL/min to achieve a maximum density of 900-1000 RU. Peptides were injected as analytes at 60 μL/min for 3 min, followed by 5 min dissociation. Peptide-2 was diluted in PBST to generate a three-fold concentration series (0-30 nM) and measured in duplicate. Single measurements of monoclonal antibody binding to Peptide-8 were recorded over the concentration range 0-100 nM.
as §3

Assay [12] concerns the target T2, Peptide-2. In words: SPR ProteOn, mAb captured, peptide as analyte. On the procedure: as §1, §9, §3
Assay [13] deals with T1, PHF-tau (paired helical filament tau …). In words: SPR ProteOn, PHF-tau capture-coupled via HT7, bivalent model. On the procedure: as §5, §6
The target of assay [14] is T2, Peptide-2. In words: SPR ProteOn, mAb captured, peptide as analyte; range of n=2. As to the method:
as §1, §9, §3

Assay [15] concerns the target T2, Peptide-2. In words: SPR ProteOn, mAb captured, peptide as analyte; range of n=2; lower end of n=2 range. On the procedure:
as §1, §9
Data were double referenced by subtraction of the interspot response, and the curves generated by the buffer only injection. The chip surface was regenerated with 0.85% phosphoric acid, followed by PBST injection before the next antibody titration injection. Data processing and analysis were performed using instrument software. […]

Assay [16] has as its target T1, PHF-tau (paired helical filament tau …). In words: SPR ProteOn, PHF-tau capture-coupled via HT7, 1:1 model; lower end of range. On the procedure: as §7, §8
The target is the same in assay [17]. In words: SPR ProteOn, PHF-tau capture-coupled via HT7, 1:1 model; upper end of range. As to the method: as §7, §8

Residue numbers refer to the chain shown, from its start.

These results are taken from patent US20230047413A1 (Janssen / Centocor, published 2023).

T2 sequence (peptide, as listed by the source): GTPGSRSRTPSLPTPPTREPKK
T1 sequence (P10636 other isoform, or with tags, fused parts or gaps limits assumed): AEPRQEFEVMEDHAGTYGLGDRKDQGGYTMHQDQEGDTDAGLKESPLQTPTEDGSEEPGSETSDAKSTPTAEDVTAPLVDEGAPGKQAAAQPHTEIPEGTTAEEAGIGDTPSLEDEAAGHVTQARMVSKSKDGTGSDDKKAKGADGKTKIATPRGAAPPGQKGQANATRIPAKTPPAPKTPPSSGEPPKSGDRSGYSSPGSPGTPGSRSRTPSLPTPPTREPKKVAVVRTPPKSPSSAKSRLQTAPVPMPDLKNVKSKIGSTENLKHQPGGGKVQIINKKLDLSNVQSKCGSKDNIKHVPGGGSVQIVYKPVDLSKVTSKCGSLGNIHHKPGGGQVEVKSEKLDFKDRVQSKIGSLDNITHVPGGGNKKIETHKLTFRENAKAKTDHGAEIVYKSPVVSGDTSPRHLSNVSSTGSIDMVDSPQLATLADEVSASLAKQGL

B1: PT1 mAb (hyb) (antibody, V domains shown)
VH: QVQLQQSGTELMKPGASVKISCKATGYTFSSSWMGWVKQRPGHGLEWIGDILPGSGGTNYNERFKGKASFTAETSSNTAYMQLSSLTSEDSAVYYCVRSYYDYDRFANWGQGTLVTVSA
VL: DIVMTQAAPSVPVTPGESVSISCRSSESLLHSNGNTYLYWFLQRPGQSPQLLIYRMSNLASGVPDRFSGSGSGTAFTLRISRVEAEDVGVYYCMQYLEYPLTFGAGTKLELK
For the molecule B1, in assay [1], the Kd was 0.322 nM, the koff worked out at 6.47e-05 s⁻¹ and the on-rate constant (kon) was 201000 M⁻¹ s⁻¹.

B2: B324 (Fab of B296) (Fab, V domains shown)
VH: QVQLVESGGGVVQPGRSLRLSCAASGFTFSSYAMSWVRQAPGKGLEWVASISKGGNTYYADSVKGRFTISRDNSKNTLYLQMNSLRAEDTAVYYCARGWGDYGWFAYWGQVTLVTVSS
VL: DIQMTQSPSSLSASVGDRVTITCKASQDINRYLNWFQQKPGKAPKSLIYRANRLLDGVPSRFSGSGSGTDFTLTISSLQPEDFATYYCLQYDEFPLTFGQGTKLEIK
notes: also called M324; B296 Fab
Regarding B2, the Kd was 0.234 to 0.376 nM with Peptide-2 [2], 0.305 nM in the assay with Peptide-2 [4], 0.167 nM in assay [9] and 0.0632 nM in assay [10]. The kon with Peptide-2 [2] was 427000 M⁻¹ s⁻¹; in the assay with Peptide-2 [4], 610000 M⁻¹ s⁻¹; in the assay with Peptide-2 [5], 793000 M⁻¹ s⁻¹; in assay [9], 816000 M⁻¹ s⁻¹; in assay [10], 1.43e+06 M⁻¹ s⁻¹. Besides, the 50% effective concentration (EC50 (read off the curve)) in assay [3] is about 0.5 nM. Further, the koff in the assay with Peptide-2 [4] was found to be 0.000174 s⁻¹; in the assay with Peptide-2 [5], 0.000186 s⁻¹; with Peptide-2 [8], 0.000161 s⁻¹; in assay [9], 0.000136 s⁻¹; in assay [10] it was 9.03e-05 s⁻¹. The molecule also had an EC50 in [6] of 0.341 nM. Besides, the “fold slower off-rate than B326” value in [7] came to 1.7 fold. Also, in assay [7], the “fold stronger affinity (KD) than B326” value was 1.3 fold. Further, the “fold weaker KD than the mouse PT3 parent Fab B187” value in assay [7] was 2.5 fold.

B3: B235 (antibody, human IgG1, V domains shown)
VH: B2 VH with Q1E, V5L, V11L, R16G, A49S, R97K
VL: B2 VL
notes: Humanized (HFA) PT3 variant, human IgG1/kappa; also called VH91/VL77
Take B3: the koff was determined as 0.0061 s⁻¹ in the assay with Peptide-2 [11], 0.00569 s⁻¹ with Peptide-2 [12], 8.06e-05 s⁻¹ in assay [13] and 0.00528 s⁻¹ with Peptide-2 [15]. The kon in the assay with Peptide-2 [11] was 3.58e+06 M⁻¹ s⁻¹; in the assay with Peptide-2 [12], 3.21e+06 M⁻¹ s⁻¹; in assay [13], 490000 M⁻¹ s⁻¹; with Peptide-2 [14], 2.84e+06 M⁻¹ s⁻¹. The Kd is 1.79 nM with Peptide-2 [12], 0.165 nM in assay [13] and 1.71 to 1.86 nM in the assay with Peptide-2 [14].

B4: B330 (Fab of B711) (Fab, V domains shown)
VH: B2 VH with S30T, S52T, D101I
VL: B2 VL with Y32W
notes: the Fab's constant parts and tag are not described; also called M330; M333 (the Fab of B711)
Take B4: the Kd in assay [16] came out at 0.0153 nM; in assay [17], 0.0158 nM; in assay [10], 0.0156 nM. In addition, the koff amounted to 6.94e-05 s⁻¹ in assay [16], 7.36e-05 s⁻¹ in assay [17] and 7.15e-05 s⁻¹ in assay [10]. Besides, the kon came to 4.53e+06 M⁻¹ s⁻¹ in assay [16], 4.66e+06 M⁻¹ s⁻¹ in [17] and 4.6e+06 M⁻¹ s⁻¹ in [10]. In assay [3], the “EC50 (read off the curve)” value is about 0.2 nM. The 50% effective concentration (EC50) in [6] came to 0.107 nM.
